{"source": "patent US20250018005A1", "key": {"[1]": {"molecular_target": "gp120, a protein in the HIV envelope (HIV)", "assay": "competition ELISA, Q-GRFT binding to gp120 in the presence of α-mannan at 0.005 (printed g/mL; the legend of FIG. 3 prints µg/mL)"}, "[2]": {"molecular_target": "gp120, a protein in the HIV envelope (HIV)", "assay": "competition ELISA, Q-GRFT binding to gp120, PBS control (no α-mannan)"}}, "data": [{"substance": "Q-Griffithsin (Q-GRFT), recombinant oxidation-resistant variant of griffithsin (M78Q) (from UniProt P84801 1-121)", "values": [{"measurement": "EC50", "setting": "[1]", "result": 79.3, "unit": "µg/mL"}, {"measurement": "EC50", "setting": "[2]", "result": 72.5, "unit": "µg/mL"}]}]}
